Patent US20170173107A1 (University of Pennsylvania, published 2017)
Positions of bridges follow the written chain, without caps; N, C: chain ends. Non-standard residues stand in square brackets, D forms with d. *: point of attachment. ABM1 = 3-(naphthalene-2-sulfonamido)propanoic acid albumin-binding tag, amide-linked to N-terminus, O=C(CCNS(=O)(=O)c1ccc2ccccc2c1)*; ABM2 = diphenyl-cyclohexanol phosphate ester hexanoic acid tag; Trp(1-Me) = Cn1cc(C[C@H](N)C(=O)O)c2ccccc21; NMeI = CC[C@H](C)[C@H](NC)C(=O)O; Sar = CNCC(=O)O

B1: Cp20 (Ac-Ile-[Cys-Val-Trp(Me)-Gln-Asp-Trp-Sar-Ala-His-Arg-Cys]-mIle-NH2) (peptide)
peptide: Ac-ICV[Trp(1-Me)]QDW[Sar]AHRC[NMeI]-NH2
modifications: disulfide 2-12
SMILES: CC[C@H](C)[C@H](NC(C)=O)C(=O)N[C@H]1CSSC[C@@H](C(=O)N(C)[C@H](C(N)=O)[C@@H](C)CC)NC(=O)[C@H](CCCNC(=N)N)NC(=O)[C@H](Cc2c[nH]cn2)NC(=O)[C@H](C)NC(=O)CN(C)C(=O)[C@H](Cc2c[nH]c3ccccc23)NC(=O)[C@H](CC(=O)O)NC(=O)[C@H](CCC(N)=O)NC(=O)[C@H](Cc2cn(C)c3ccccc23)NC(=O)[C@H](C(C)C)NC1=O
notes: Synthetic cyclic 13-residue peptide; also called compstatin analog Cp20; C20
B2: ABM2-Cp20 (ABM2-Ile-[Cys-Val-Trp(Me)-Gln-Asp-Trp-Sar-Ala-His-Arg-Cys]-mIle-NH2) (peptide)
peptide: ABM2-ICVWQDW[Sar]AHRC[NMeI]-NH2
modifications: disulfide 2-12; not fully specified (residue 4); printed as ABM2-Ile-[Cys-Val-Trp(Me)-Gln-Asp-Trp-Sar-Ala-His-Arg-Cys]-mIle-NH2
notes: also called ABM2-Compstatin 20
B3: ABM1-Cp20 (peptide)
peptide: ABM1-ICV[Trp(1-Me)]QDW[Sar]AHRC[NMeI]-NH2
modifications: disulfide 2-12
SMILES: CC[C@H](C)[C@H](NC(=O)CCNS(=O)(=O)c1ccc2ccccc2c1)C(=O)N[C@H]1CSSC[C@@H](C(=O)N(C)[C@H](C(N)=O)[C@@H](C)CC)NC(=O)[C@H](CCCNC(=N)N)NC(=O)[C@H](Cc2c[nH]cn2)NC(=O)[C@H](C)NC(=O)CN(C)C(=O)[C@H](Cc2c[nH]c3ccccc23)NC(=O)[C@H](CC(=O)O)NC(=O)[C@H](CCC(N)=O)NC(=O)[C@H](Cc2cn(C)c3ccccc23)NC(=O)[C@H](C(C)C)NC1=O
notes: also called ABMT-Cp20 (misprint of ABM1 in the text)
B4: ABM2-Cp20-miniPEG-Lys(biotin) (peptide)
peptide: ICVWQDWGAHRCIK
modifications: not fully specified; ABM2 amide-linked to the N-terminus; Trp(Me) at position 4; Sar at position 8; mIle at position 13; disulfide Cys2-Cys12; miniPEG (AEEEA) spacer between mIle13 and the C-terminal Lys; biotin on the Lys side chain; made on Rink amide resin (C-terminal amide)
notes: Captured on streptavidin-coated CM5 chip at about 100 RU; also called biotinylated ABM2-Cp20; immobilized ABM2-Cp20

Columns and labels:
complement component C3 = complement component C3 (human, UniProt P01024 672-1663); assay: cell-based or functional assay
Chain of complement component C3 (P01024 23-665 P314L limits assumed, chain 1 of 2): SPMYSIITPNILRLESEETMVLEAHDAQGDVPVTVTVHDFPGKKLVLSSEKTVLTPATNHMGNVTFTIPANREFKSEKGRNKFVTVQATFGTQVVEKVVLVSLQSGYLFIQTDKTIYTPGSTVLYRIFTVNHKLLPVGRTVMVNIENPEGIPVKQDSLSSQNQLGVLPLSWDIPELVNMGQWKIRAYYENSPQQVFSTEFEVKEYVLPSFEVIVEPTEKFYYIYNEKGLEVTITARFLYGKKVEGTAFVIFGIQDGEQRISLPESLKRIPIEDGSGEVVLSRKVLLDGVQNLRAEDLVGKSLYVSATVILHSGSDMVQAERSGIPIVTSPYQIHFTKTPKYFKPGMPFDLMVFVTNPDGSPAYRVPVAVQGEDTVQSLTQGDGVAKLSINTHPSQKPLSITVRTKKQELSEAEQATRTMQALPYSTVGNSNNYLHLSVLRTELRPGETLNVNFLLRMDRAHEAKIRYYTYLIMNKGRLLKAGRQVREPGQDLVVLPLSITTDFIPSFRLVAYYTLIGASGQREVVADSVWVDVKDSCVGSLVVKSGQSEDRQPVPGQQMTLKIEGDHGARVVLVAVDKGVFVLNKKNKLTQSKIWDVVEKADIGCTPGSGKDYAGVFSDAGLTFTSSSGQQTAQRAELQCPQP
Chain of complement component C3 (P01024 672-1663 limits assumed, chain 2 of 2): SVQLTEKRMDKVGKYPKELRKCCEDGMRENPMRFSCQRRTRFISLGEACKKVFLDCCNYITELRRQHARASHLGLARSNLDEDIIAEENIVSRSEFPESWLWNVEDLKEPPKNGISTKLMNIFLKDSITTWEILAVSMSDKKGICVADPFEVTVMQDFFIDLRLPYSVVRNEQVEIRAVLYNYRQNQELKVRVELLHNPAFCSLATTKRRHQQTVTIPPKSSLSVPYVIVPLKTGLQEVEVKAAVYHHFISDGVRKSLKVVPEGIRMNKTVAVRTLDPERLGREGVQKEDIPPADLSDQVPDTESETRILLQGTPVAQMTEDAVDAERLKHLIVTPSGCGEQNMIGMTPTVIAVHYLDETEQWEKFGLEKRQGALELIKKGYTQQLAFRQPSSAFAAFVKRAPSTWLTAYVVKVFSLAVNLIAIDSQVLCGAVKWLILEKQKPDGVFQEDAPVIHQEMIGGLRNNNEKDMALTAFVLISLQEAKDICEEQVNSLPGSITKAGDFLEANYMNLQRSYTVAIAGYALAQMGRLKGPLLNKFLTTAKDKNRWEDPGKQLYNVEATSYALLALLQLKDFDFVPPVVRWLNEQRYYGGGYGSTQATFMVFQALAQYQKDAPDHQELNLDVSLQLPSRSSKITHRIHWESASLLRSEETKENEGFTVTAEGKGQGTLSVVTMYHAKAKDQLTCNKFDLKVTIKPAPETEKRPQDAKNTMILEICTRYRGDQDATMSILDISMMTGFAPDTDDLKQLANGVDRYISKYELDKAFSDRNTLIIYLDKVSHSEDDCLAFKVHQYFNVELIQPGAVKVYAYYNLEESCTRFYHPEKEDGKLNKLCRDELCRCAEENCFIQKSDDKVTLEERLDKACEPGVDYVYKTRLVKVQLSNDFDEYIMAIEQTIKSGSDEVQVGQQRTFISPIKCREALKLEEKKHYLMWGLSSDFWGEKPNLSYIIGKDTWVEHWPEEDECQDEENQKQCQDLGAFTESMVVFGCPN

[1] = molecular target: T1, C3b (biotinylated, captured on a streptavidin sensor chip) (UniProt P01024 749-1663, biotinylated (site not stated)); assay: SPR (Biacore 3000), single-cycle kinetics, peptide over captured biotinylated C3b, 1:1 model, 25 °C
T1 construct: range 727-1641; also called site-specifically immobilized C3b
T1 sequence (P01024 23-665 P314L limits assumed, chain 1 of 2): as the sequence (P01024 23-665 P314L limits assumed, chain 1 of 2) above
T1 sequence (P01024 749-1663 limits assumed, chain 2 of 2): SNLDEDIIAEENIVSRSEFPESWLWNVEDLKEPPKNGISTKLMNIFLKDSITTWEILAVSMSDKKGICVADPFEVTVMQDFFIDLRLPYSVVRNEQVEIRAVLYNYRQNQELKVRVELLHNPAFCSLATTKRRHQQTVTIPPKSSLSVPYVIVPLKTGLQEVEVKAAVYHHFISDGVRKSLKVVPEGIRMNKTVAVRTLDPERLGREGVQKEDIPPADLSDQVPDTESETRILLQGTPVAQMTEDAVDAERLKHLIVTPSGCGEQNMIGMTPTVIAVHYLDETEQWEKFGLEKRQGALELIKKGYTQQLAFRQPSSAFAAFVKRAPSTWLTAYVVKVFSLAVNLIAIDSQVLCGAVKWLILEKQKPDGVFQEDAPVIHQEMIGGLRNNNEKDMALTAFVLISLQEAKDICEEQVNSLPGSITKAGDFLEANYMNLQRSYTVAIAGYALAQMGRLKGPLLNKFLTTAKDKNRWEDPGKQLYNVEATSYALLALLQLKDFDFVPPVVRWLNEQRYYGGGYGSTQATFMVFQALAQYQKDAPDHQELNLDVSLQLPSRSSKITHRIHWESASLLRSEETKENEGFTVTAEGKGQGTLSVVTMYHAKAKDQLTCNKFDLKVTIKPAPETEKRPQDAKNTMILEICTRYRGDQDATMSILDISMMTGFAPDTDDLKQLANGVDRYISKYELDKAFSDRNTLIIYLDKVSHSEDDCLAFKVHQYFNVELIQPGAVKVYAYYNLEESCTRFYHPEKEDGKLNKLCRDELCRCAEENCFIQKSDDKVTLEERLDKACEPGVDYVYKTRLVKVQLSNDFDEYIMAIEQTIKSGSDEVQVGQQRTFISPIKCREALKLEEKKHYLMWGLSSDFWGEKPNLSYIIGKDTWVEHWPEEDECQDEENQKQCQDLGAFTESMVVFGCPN
Description: 1.1 Interaction of Compstatin analogues with C3b. […] Individual injections within a cycle were 2 min long with a 5-min dissociation between injections. After the end of the last injection, a 40-min dissociation time was allowed. […] The kinetic evaluation was performed in BiaEvaluation using a single cycle kinetic template (kindly provided by GE Healthcare) by globally fitting each data set to a 1:1 Langmuir binding model to achieve association and dissociation rates (kₐ and kd, respectively); the equilibrium dissociation constant (KD) was calculated from the equation KD=kd/kₐ (FIG. 1). Each assay was performed at least twice.
^aSingle-cycle kinetic analysis of compstatin conjugates was performed. Sets of five increasing concentrations were consecutively injected over a C3b surface (3000-5000 RU density) in a single cycle. The processed signals were fitted to a 1:1 binding model.

baboon albumin = baboon albumin (baboon); assay: SPR, albumin (6.3-100 µM) over immobilized biotinylated ABM2-Cp20; apparent affinity (KD app) from steady state, single-binding-site model
Description: 1.2 Interaction of ABM-Compstatin conjugates with albumin.
To confirm the albumin-directed activity of the ABM-compstatin conjugates and further explore their simultaneous binding to C3 and albumin, we performed additional SPR binding studies. […] The biotinylated peptides were immobilized on a streptavidin-coated SPR sensor chip, and the interactions with albumins from different species (human, baboon, bovine, rabbit and mouse) were characterized (Table 3; FIG. 2).

| Binder | IC50 (µM), inhibition of immune complex-induced (classical pathway) complement activation in human plasma, ELISA (complement component C3) [µM] | Kd [1] [nM] | koff [1] [s⁻¹] | kon [1] [M⁻¹ s⁻¹] | Kd (baboon albumin) [nM] |
| --- | --- | --- | --- | --- | --- |
| B1 | 0.26 | 2.9 | 0.0067 | 2.3e+06 |  |
| B2 | 0.17 |  |  |  |  |
| B3 | 0.2 |  |  |  |  |
| B4 |  |  |  |  | 106000 |
